According to PMC13200455:

What was measured:
[1] = molecular target: T1, USE1 (purified, His-USE1) (Homo sapiens, UniProt Q9H832 1-354); assay: equilibrium binding curve, one-site fit
[2] = molecular target: T1, USE1 (purified, His-USE1); assay: Ni-NTA and streptavidin pull-down
[3] = molecular target: T1, USE1 (purified, His-USE1); assay: ELONA titration
[4] = molecular target: T1, USE1 (purified, His-USE1); assay: fluorescence/quencher displacement

T1 sequence (Q9H832 whole entry): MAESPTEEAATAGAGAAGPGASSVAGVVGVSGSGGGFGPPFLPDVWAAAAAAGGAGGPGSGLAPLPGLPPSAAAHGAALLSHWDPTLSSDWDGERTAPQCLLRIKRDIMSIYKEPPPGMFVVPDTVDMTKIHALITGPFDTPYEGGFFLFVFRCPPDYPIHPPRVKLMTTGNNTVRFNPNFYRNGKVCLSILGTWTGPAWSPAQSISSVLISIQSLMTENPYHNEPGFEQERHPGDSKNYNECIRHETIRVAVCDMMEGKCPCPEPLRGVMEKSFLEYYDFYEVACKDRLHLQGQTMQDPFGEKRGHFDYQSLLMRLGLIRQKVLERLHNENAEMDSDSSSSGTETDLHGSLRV

B1: Aptamer 3 (ssDNA)
DNA: CACCTAATACGACTCACTATAGCGGATCCGACAGAATGCCATCACCATGTCTAGACCTATTGGCTTTGCGACTGGCTCGAACAAGCTTGC
Question: How did the Kd [1] turn out when B1 was run?
Answer: Its Kd is 90 ± 2.42 nM.

B2: Aptamer 1e (ssDNA)
DNA: CACCTAACACGATTCACTATAGCTCGGGGTTTGGCA
Question: Does B2 bind [2]?
Answer: Result: binds

B3: Aptamer 2 (ssDNA)
DNA: CACCTAATACGACTCACTATAGCGGACAGGGCTGGTGTGGCTGGCGTCCGGCTCGAACAAGGCTGGTGTGGCTGGCGTTCTGGCTCGAACAAGCTTGC
Question: How did the Kd [1] turn out when B3 was run?
Answer: The Kd was 32 ± 2.54 nM.

B4: Aptamer 1 (ssDNA)
DNA: CACCTAATACGACTCACTATAGCGGATCCGATGGGTGGGGGGGTGGGTAGGATCCGTTCGGGGTTTGGCATAGGGTCTGGCTCGAACAAGCTTGC
Question: How did the Kd [3] turn out when B4 was run?
Answer: The Kd was 7.2 ± 2.91 nM.

Question: What about the Kd [1] of the same binder?
Answer: The Kd was 10 ± 2.76 nM.

B5: Aptamer 1 fluorescence/quencher probe (mixed)
DNA 1: CACCTAATACGACTCACTATAGCGGATCCGATGGGTGGGGGGGTGGGTAGGATCCGTTCGGGGTTTGGCATAGGGTCTGGCTCGAACAAGCTTGC
DNA 2: GCAAGCTTGTTCGAGCCAG
DNA 3: CCCTATGCCAAAC
Question: Does B5 bind [4]?
Answer: Result: binds
